From IntAct's records for PubMed 20133640

Target: ssph2_salty sspH2 (UniProt P0CE12)
Sequence (P0CE12 whole entry): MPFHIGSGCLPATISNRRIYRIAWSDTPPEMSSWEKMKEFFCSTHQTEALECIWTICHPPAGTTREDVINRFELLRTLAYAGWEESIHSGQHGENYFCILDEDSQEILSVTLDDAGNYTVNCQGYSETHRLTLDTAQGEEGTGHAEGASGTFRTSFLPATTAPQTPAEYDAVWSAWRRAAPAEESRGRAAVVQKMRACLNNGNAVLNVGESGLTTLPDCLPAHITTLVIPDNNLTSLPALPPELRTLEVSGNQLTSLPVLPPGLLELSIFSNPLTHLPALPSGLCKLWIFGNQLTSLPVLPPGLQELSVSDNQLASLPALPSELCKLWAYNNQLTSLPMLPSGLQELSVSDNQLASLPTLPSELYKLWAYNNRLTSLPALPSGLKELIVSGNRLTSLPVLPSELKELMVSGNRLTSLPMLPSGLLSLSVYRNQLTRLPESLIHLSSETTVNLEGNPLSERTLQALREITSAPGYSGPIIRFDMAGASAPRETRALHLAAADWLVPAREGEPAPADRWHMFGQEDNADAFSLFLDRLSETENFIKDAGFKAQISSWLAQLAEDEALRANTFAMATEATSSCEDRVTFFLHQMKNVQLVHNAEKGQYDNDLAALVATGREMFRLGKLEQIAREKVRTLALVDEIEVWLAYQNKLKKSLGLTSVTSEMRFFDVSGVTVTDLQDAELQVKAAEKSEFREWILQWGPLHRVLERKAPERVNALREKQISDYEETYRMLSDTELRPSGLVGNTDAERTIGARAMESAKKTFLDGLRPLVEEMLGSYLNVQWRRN

Ubiquitin-conjugating enzyme E2 D3 (Homo sapiens), P61077 A96D, sequence (P61077 whole entry A96D): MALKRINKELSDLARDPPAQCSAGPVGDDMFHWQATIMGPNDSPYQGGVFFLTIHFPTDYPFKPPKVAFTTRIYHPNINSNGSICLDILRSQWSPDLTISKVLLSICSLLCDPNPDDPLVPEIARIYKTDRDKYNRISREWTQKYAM

Ubiquitin-conjugating enzyme E2 D3 (Homo sapiens), P61077 A96D
effect of a mutation on the interaction: decreasing interaction
